From publication PMC3377668, “Detection of Crosslinks within and between Proteins by LC-MALDI-TOFTOF and the Software FINDX to Reduce the MSMS-Data to Acquire for Validation” (PLoS ONE, 2012)

Molecular target: T1, Clp-protease subunit R (ClpR) from Synechococcus sp. (Synechococcus sp., UniProt Q9L4P4 1-228)
T1 construct: ClpR, Clp-protease subunit R, Synechococcus sp., UniProtKB Q9L4P4; Stood in the crosslinked ClpCP3R complex; also called R-subunit; source: part of the Synechococcus ClpCP3R complex, obtained as described previously according to [20]
T1 sequence (looked up): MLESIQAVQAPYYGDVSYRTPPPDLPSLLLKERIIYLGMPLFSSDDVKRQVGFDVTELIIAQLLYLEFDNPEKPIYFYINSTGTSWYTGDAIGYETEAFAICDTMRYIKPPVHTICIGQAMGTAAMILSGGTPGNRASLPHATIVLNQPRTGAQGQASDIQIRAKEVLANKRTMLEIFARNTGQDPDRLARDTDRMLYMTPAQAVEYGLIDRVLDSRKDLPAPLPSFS
Assay: cross-linking; Clp-protease multisubunit complex (ClpCP3R) crosslinked with H12/D12 BS3; tryptic digest separated into 192 fractions, LC-MALDI-TOF/TOF, FINDX (7 ppm, intensity parameter 0.22), MSMS validation
Conditions: both partners purified

B1: Clp-protease subunit P3 (ClpP3) from Synechococcus sp. (natural protein, UniProt Q9L4P3 1-199, looked up)
chain: MPIGVPSVPYRLPGSSFERWIDIYNRLAMERIIFLGQEVTDGLANSIVAQLLYLDSEDSSKPIYLYINSPGGSVTAGMAIYDTMQYIKSPVITICLGLAASMGAFLLCAGSKGKRLALPHSRIMIHQPLGGTGRRQASDIEIEAKEILRIKKLLNQIMADRTGQPLEKIEKDTDRDYFMSAEEAREYGLIDQVIAERPV
notes: ClpP3, Clp-protease subunit P, Synechococcus sp., UniProtKB Q9L4P3; Stood in the crosslinked ClpCP3R complex (P3 and R in a proteolytic core of two heptameric rings, ClpC in a hexameric ring); also called P3-subunit; source: part of the Synechococcus ClpCP3R complex, obtained as described previously according to [20]; not shown: His6, C-terminal, kept
B1: binds.
